Data published in article PMC13281839.

Target: N‐terminal half of fibrillin‐1, fragment rF90 (S19‐V1527) (UniProt P35555)
Experiment: SPR

Chain of UniProt P35555 (P35555 45-1527): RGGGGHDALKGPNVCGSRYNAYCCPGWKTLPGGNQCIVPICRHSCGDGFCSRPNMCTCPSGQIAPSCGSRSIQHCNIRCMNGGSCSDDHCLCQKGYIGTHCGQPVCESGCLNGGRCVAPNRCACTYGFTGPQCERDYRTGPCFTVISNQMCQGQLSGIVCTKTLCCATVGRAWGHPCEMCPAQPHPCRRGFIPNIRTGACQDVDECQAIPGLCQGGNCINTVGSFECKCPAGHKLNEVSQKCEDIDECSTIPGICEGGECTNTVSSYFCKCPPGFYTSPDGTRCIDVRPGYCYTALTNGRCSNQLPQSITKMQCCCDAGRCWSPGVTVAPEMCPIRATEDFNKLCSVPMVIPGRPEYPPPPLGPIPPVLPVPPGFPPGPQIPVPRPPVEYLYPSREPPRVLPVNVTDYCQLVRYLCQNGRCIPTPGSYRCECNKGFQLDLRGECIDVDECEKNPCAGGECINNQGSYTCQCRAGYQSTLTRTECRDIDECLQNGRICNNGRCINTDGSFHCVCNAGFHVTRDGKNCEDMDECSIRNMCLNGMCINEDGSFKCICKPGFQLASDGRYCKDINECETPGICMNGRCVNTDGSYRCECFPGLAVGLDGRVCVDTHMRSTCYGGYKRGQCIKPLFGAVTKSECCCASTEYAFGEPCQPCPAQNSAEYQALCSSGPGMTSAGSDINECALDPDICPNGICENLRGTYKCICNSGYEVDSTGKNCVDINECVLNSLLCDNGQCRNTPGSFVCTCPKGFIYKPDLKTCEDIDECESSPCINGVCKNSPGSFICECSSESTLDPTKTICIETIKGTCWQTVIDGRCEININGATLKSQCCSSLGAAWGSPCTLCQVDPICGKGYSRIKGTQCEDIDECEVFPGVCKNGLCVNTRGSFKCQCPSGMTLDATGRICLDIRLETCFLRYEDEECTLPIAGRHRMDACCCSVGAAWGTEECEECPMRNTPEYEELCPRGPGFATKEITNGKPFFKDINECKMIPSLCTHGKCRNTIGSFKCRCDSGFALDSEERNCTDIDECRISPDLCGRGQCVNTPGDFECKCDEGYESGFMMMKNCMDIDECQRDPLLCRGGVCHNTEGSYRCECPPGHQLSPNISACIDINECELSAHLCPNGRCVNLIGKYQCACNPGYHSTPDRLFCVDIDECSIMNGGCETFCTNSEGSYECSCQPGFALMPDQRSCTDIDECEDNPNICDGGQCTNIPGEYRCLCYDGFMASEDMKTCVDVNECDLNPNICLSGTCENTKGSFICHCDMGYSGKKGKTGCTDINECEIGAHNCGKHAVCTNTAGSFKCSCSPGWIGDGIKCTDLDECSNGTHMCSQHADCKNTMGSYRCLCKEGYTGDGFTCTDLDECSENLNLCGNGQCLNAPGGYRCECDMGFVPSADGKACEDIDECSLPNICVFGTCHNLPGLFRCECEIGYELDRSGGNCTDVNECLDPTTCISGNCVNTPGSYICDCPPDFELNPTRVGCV

Kd: 7 nM
Substance: BMP‐7 CPLX (BMP‐7 growth factor‐prodomain complex) (from UniProt P18075 293-431)
